Reference: patent US20190359653A1 (Genentech, published 2019)
* marks the point of attachment. Palmitoyl = CCCCCCCCCCCCCCCC(=O)*; Myristoyl = CCCCCCCCCCCCCC(=O)*; Lauroyl = CCCCCCCCCCCC(=O)*; Decanoyl = CCCCCCCCCC(=O)*; Octanoyl = CCCCCCCC(=O)*

Each binder was assayed against T1, FZD7 receptor of HEK293-TB cells (human, UniProt O75084 33-574) (assay: cell-based or functional assay).

| Binder | IC50 (nM), TOPbrite reporter assay in HEK293-TB cells stimulated with mWnt3a (50 ng/mL) [nM] | Reduction in fold potency vs. dimer [fold] |
| --- | --- | --- |
| Ac-LPSDDLEFWCHVMA-NH2 (also: homodimer via Cys10 disulfide) [dFz7-21-Y14A] | 2960 | 267 |
| Ac-LPSDDLEFACHVMY-NH2 (also: homodimer via Cys10 disulfide) [dFz7-21-W9A] | 640 | 58 |
| Ac-LPSDDLEFWCHVAY-NH2 (also: homodimer via Cys10 disulfide) [dFz7-21-M13A] | 913 | 82 |
| Ac-LPSDDAEFWCHVMY-NH2 (also: homodimer via Cys10 disulfide) [dFz7-21-L6A] | 7120 | 642 |

Target: T1, FZD7 receptor of HEK293-TB cells
Assay: cell-based or functional assay
Remark: another data set of the same source

| Binder | Best Fit IC50 (nM), Wnt3a-mediated β-catenin signaling in HEK293-TB cells (50 ng/mL mWnt3a) [nM] |
| --- | --- |
| Ac-SDDLEFWCHVK(Palmitoyl)Y-NH2 (also: dimer via disulfide bond at Cys8) [dFz7-21Δ2.M13K (C16)] | 607 |
| Ac-SDDLEFWCHVK(Octanoyl)Y-NH2 (also: dimer via disulfide bond at Cys8) [dFz7-21Δ2.M13K (C8)] | 2130 |
| Ac-SDDLEFWCHVK(Decanoyl)Y-NH2 (also: dimer via disulfide bond at Cys8) [dFz7-21Δ2.M13K (C10)] | 1500 |
| Ac-SDDLEFWCHVK(Myristoyl)Y-NH2 (also: dimer via disulfide bond at Cys8) [dFz7-21Δ2.M13K (C14)] | 607 |
| Ac-SDDLEFWCHVK(Lauroyl)Y-NH2 (also: dimer via disulfide bond at Cys8) [dFz7-21Δ2.M13K (C12)] | 553 |
